This note sets out measurements from EP3831849A1 (LamKap Bio beta AG, dated 2021).

The target in assay [1] is T1, human CEACAM5 expressed on MKN-45 wt cells (human, UniProt P06731 35-702).
T1 sequence: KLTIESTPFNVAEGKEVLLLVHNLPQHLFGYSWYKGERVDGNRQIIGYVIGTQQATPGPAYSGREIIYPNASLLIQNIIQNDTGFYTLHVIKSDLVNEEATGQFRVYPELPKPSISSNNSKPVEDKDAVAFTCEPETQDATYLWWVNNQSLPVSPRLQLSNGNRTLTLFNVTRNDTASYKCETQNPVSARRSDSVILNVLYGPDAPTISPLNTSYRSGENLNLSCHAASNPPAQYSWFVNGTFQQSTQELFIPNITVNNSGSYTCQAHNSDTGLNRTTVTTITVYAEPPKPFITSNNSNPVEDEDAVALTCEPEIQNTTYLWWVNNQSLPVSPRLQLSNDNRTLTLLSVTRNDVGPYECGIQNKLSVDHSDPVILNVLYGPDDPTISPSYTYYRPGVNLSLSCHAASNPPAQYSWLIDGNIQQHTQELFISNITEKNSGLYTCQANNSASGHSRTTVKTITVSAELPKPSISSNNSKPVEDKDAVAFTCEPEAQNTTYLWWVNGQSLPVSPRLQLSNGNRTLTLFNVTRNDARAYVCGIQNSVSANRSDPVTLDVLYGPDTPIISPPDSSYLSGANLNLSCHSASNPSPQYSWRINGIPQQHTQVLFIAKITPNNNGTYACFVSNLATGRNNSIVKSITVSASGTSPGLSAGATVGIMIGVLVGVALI
Put plainly: cell-based or functional assay.

For assay [2], the target named is T2, biotinylated recombinant human CEACAM5 (human, UniProt P06731 35-685, biotin on the C-terminal Avitag).
T2 construct: also called CD66e; not shown: C-terminal Avitag plus hexa-histidine tag, human Fc or mouse Fc
T2 sequence: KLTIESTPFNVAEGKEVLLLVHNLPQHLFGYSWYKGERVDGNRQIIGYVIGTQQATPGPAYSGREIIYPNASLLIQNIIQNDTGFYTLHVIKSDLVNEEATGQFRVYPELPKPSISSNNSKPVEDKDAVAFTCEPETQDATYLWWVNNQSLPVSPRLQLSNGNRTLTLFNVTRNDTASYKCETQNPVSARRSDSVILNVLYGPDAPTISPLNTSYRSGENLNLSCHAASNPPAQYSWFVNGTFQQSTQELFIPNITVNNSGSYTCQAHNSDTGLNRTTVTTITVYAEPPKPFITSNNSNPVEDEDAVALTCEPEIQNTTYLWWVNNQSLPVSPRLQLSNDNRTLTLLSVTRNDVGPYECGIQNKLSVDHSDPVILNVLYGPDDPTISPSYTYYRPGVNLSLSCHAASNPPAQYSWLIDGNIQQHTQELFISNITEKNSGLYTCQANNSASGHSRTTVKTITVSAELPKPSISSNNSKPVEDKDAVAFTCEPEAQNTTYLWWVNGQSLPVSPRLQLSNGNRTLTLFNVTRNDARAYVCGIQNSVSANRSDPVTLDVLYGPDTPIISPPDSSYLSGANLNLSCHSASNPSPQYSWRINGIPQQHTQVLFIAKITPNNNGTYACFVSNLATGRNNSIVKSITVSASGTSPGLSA
Put plainly: reference mAb in the competition ELISA on biotinylated human CEACAM5. Background: An ELISA detects its analyte on a solid surface through an enzyme-linked reagent.

Assay [3] addresses T2, biotinylated recombinant human CEACAM5. Put plainly: ELISA; biotinylated recombinant protein on streptavidin plate; bivalent mAb titrated.
Assay [4] has the same target. The assay is described as above. This is another data set of the same source.
Assay [5] deals with T3, recombinant cynomolgus monkey CEACAM5 (cynomolgus monkey (macaca fascicularis)).
T3 construct: also called cyno CEACAM5; cynomolgus CEACAM5
The assay is described as above.

Like-named read-outs stand apart in the source and are kept apart here.

B1: K2AC50 (bispecific antibody, human IgG1, kappa, lambda)
heavy: not shown
light 1: QSALTQPASVSGSPGQSITISCTGTSSDVYEFRLVSWYQQHPGKAPKLMIYFDSLRPSGVSNRFSGSKSGNTASLTISGLQAEDEADYYCSSWDKFGYAFNSVFGGGTKLTVLGQPKAAPSVTLFPPSSEELQANKATLVCLISDFYPGAVTVAWKADSSPVKAGVETTTPSKQSNNKYAASSYLSLTPEQWKSHRSYSCQVTHEGSTVEKTVAPTECS
light 2: not shown
Take B1: the “EC50 (µg/mL) of phagocytosis” value in assay [1] was 0.07 µg/mL.

B2: SAR (antibody, V domains shown)
VH: EVQLVESGGGLVQPGGSLRLSCAASGFVFSSYDMSWVRQAPGKGLEWVSYISSGGGITYYADSVKGRFTISRDNSKNTLYLQMNSLRAEDTAVYYCAAHYFGSSGPFAYWGQGTLVTVSS
VL: DIQMTQSPSSLSASVGDRVTITCRASENIFSYLAWYQQKPGKAPKLLIYNTRTLQSGVPSRFSGSGSGTDFTLTISSLQPEDFATYYCQHHYGTPFTFGQGTKLEIK
notes: also called mAb derived from Mab2_VLg5VHg2
For B2, the binding result in assay [2] is reported as “binds”.

B3: SM3E (antibody, V domains shown)
VH: QVKLEQSGAEVVKPGASVKLSCKASGFNIKDSYMHWLRQGPGQRLEWIGWIDPENGDTEYAPKFQGKATFTTDTSANTAYLGLSSLRPEDTAVYYCNEGTPTGPYYFDYWGQGTLVTVSS
VL: ENVLTQSPSSMSVSVGDRVNIACSASSSVPYMHWLQQKPGKSPKLLIYLTSNLASGVPSRFSGSGSGTDYSLTISSVQPEDAATYYCQQRSSYPLTFGGGTKLEIK
notes: also called anti-CEACAM5 antibody SM3E
As to B3, the binding result in assay [2] was “binds”.

B4: AC49 (antibody, human IgG1, lambda, V domains shown)
VH: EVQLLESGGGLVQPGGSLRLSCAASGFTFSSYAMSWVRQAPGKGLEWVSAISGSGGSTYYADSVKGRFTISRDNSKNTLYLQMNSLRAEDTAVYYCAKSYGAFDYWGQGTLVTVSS
VL: QSVLTQPPSVSAAPGQKVTISCSGSSSNIFDSGVSWYQQLPGTAPKLLIYNHNERPSGIPDRFSGSKSGTSATLGITGLQTGDEADYYCGTWDFPPSRFVFGGGTKLTVLG
notes: Bivalent IgG1 mAb; 6 carries the IgG1 Fc; also called CEACAM5/CEACAM6 mAb AC49
As usually defined, the EC50 is the concentration that produces a half-maximal response. Turning to B4, the values for the concentration for a half-maximal effect (EC50) in assay [3], in assay [4] and in assay [5] were 0.1 nM, 0.1 nM and 0.03 nM, respectively.

B5: K2AC49 (bispecific antibody, human IgG1, kappa, lambda)
heavy: not shown
light 1: QSVLTQPPSVSAAPGQKVTISCSGSSSNIFDSGVSWYQQLPGTAPKLLIYNHNERPSGIPDRFSGSKSGTSATLGITGLQTGDEADYYCGTWDFPPSRFVFGGGTKLTVLGQPKAAPSVTLFPPSSEELQANKATLVCLISDFYPGAVTVAWKADSSPVKAGVETTTPSKQSNNKYAASSYLSLTPEQWKSHRSYSCQVTHEGSTVEKTVAPTECS
light 2: not shown
For the molecule B5, the “EC50 (µg/mL) of phagocytosis” value in assay [1] came to 0.3 µg/mL.

B6: AC50 (antibody, human IgG1, lambda, V domains shown)
VH: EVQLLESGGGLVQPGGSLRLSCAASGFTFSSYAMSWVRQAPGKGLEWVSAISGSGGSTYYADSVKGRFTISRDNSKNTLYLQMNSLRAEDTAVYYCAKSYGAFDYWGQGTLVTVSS
VL: QSALTQPASVSGSPGQSITISCTGTSSDVYEFRLVSWYQQHPGKAPKLMIYFDSLRPSGVSNRFSGSKSGNTASLTISGLQAEDEADYYCSSWDKFGYAFNSVFGGGTKLTVLG
notes: Bivalent IgG1 mAb; 6 carries the IgG1 Fc; also called CEACAM5/CEACAM6 mAb AC50
B6: the EC50 in assay [3] came out at 0.09 nM; in assay [4], 0.09 nM; in assay [5], 0.05 nM.
